Blank lines part the entries; values can stand above or below the molecule they belong to.
Experiments:
[1] = target: Oregon Green 488-labelled RelA dimerization domain homodimer (murine) (UniProt Q04207); assay: fluorescence polarisation
[2] = target: RelA homodimer as used for SPR (murine) (UniProt Q04207); assay: SPR
[3] = target: Oregon Green 488-labelled RelA(19–321)-p50(39–350) heterodimer (murine) (UniProt Q04207); assay: fluorescence polarisation
[4] = target: Oregon Green 488-labelled p50(39–350)-cRel(1–294) heterodimer (murine) (UniProt P25799); assay: fluorescence polarisation
[5] = target: RelA-p50 heterodimer as used for SPR (murine) (UniProt Q04207); assay: SPR
RelA (Mus musculus) = RelA (Mus musculus) (UniProt Q04207); conditions: cited from earlier work
[6] = target: labelled p50(39–350) homodimer (murine) (UniProt P25799); assay: fluorescence polarisation

Kd [1]: 0.28 nM | Kd [2]: 0.054 nM
Molecule: IKBα(67–287) (from UniProt P25963 67-287) (domain or fragment)

Kd [3]: 0.89 nM | Kd [4]: 0.92 nM | Kd [1]: 0.072 nM | Kd [5]: 1.1 nM | Kd [2]: 0.07 nM
Molecule: IKBβ(50–359) (domain or fragment)

Molecule: RelA (from UniProt Q04207)
Kd (RelA (Mus musculus)): 800 nM

Kd [6]: 0.81 nM
B1: (His)6-IKBε(40–364) (domain or fragment)
chain: SSQSGCPQPWRHAPETHKEPEKEDADGERADSTYASSSLTESFPLLERPEAKDPSPPAPGSPLPPAGVLSPQQLEALTYISEDGDTLLHLAVIHEAPSVLFCCLAFLPQEVLDIQNNLYQTALHLAVHLDQPDVVRALVLKGASRILQDQHGDTALHVACRRQNLACACCLLEEQPEPGRQLSHPLDLQLKNWQGLACLHIATLQRNQPLIELLLQNGADIDVQEGTSGKTALHLAVETQERSLVQFLLQAGARVDARMLNGCTPLHLAAGRGLNSISSTLCEAGADSLLLNVEDETPQDLAEDLLSYLPFDDLKISGKPLLCTD

Reference: article PMC6642826
